Reference: publication PMC8131599 (2021)

Legend:
[1] = biological target: T1, EV-D68 mature virion, strain US/MO/14-18947 (clade B) (enterovirus D68 strain US/MO/14-18947); experiment: BLI
T1 chain 1: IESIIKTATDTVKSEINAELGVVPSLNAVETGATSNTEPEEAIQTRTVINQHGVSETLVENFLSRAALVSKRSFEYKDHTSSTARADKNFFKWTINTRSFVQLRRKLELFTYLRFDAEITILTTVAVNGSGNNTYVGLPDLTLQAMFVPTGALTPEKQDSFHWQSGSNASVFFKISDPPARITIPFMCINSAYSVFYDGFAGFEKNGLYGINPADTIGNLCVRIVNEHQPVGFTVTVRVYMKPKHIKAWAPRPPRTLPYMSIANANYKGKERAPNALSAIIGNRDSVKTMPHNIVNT
T1 chain 2: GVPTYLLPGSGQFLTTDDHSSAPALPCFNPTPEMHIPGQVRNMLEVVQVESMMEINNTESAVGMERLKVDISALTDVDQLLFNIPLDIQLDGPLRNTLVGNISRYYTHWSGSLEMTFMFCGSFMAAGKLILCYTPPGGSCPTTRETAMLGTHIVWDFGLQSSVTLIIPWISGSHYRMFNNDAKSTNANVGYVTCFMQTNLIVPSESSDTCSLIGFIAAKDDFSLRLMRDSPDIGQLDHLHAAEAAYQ
T1 chain 3: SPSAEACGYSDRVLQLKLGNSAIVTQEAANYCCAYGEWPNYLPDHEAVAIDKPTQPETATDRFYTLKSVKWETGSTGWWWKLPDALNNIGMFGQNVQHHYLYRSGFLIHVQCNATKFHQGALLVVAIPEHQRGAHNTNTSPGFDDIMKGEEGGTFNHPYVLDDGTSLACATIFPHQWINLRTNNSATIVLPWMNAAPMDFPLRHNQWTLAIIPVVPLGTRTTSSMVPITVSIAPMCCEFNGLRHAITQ
T1 chain 4: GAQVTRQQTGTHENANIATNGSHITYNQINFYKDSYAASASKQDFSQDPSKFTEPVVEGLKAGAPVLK

[2] = biological target: T1, EV-D68 mature virion, strain …; experiment: BLI

B1: human-mouse chimeric MAb 8F12 (antibody, V domains shown)
VH: QVQLQQPGTELVRPGASVKLSCKASGYSFTSYWMNWVKQRPGQGLEWIGMIHPSDSETRLNQRFKDKATLTVDKSSNTAYMQLSSPTSEDSAVYYCAREGYDYDGFAYWGQGTLVTVSA
VL: QIVLTQSPAAMSASPGEKVTMTCSASSSVIYMYWYQQKPGSSPRLLIYDTSNLASGVPVRFSGSGSGTSYSLTISRMEAEDAATYYCQQWSSFPYTFGGGTKLEIK
B1 showed a koff [1] of 0.0044 s⁻¹.

B2: human-mouse chimeric MAb 2H12 (antibody, V domains shown)
VH: QVQLQQPGAELVMPGASVKMSCKASGYTFTDYWMHWVKQRPGQGLEWIGAIDTSDSYTTYNRKFKGKATLTVDESSSTAYMQLISLTSEDSAVYYCARGGGGNSPFAYWGQGTLVTVSA
VL: DIQMTQSPSSLSASLGERVSLTCRASQDIGSSLNWLQQEPDGTIKRLIYATSSLDSGVPKRFSGSRSGSDYSLTISSLESEDFVDYYCLQYASFPLTFGAGTKLELK
B2 showed a Kd [2] of 2.9 nM and a koff [1] of 0.00055 s⁻¹.
